Results as given in article PMC2739207 (BMC Structural Biology, 2009).

T1: 40 kDa C-terminal fragment of the lysosomal 66.3 kDa protein from mouse (C249-D594) (mouse, UniProt Q3TCN2 249-594, N-glycans at N441 and N520; C249 partially oxidized, modeled as cysteine sulfonic acid (OCS))
T1 construct: lysosomal 66.3 kDa protein, mouse; C-terminal proteolytic fragment beginning at C249; ordered in 3FGR and 3FGT: C249-P592; W593, D594 and the eleven tag residues are disordered; Made by cleavage of the 66.3 kDa proprotein between S248 and C249; also called 40 kDa fragment; chain B; source: gel filtration only for the batch of 3FGR
T1 sequence (looked up): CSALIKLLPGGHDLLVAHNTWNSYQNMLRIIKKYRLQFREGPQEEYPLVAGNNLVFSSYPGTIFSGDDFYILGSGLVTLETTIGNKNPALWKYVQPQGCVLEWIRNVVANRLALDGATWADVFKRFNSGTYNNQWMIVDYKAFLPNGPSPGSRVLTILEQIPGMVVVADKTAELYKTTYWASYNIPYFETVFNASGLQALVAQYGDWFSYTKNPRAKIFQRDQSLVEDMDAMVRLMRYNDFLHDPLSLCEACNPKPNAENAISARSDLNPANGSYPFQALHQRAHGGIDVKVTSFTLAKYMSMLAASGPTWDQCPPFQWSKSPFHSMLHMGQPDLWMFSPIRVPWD


Tests used:
[1] = target: T1, 40 kDa C-terminal fragment of the …; test: crystal structure; crystals grown under acidic conditions (PEG 4000, NaAc/HAc pH 4.6, NH4Ac); crystal form I, space group C2, one molecule in the asymmetric unit; 3FGR at 1.8 Å, 3FGT at 2.4 Å; conditions: both partners purified
[2] = target: the molecule itself; test: SEC; gel filtration column during protein purification, after affinity and anion exchange columns; single 280 nm absorption peak; conditions as in ref. 17

Binder | binding result [1] | stoichiometry N [2]
28 kDa N-terminal fragment of the lysosomal 66.3 kDa protein from mouse (L47-S248) (domain or fragment, UniProt Q3TCN2 47-248, looked up, N-glycans at N93, N115 and N236, lysosomal 66.3 kDa protein, mouse; N-terminal proteolytic fragment after cleavage between S248 and C249; residues L47-S248 by mass spectrometry; ordered in 3FGR: V63-T238 and G245-S248; Made by cleavage of the 66.3 kDa proprotein; it never stood apart from the 40 kDa fragment; The protein batch also holds the shorter form L47-S246 and the uncleaved protein; also called 28 kDa fragment; …) LPTLGPGWQRQNPDPPVSRTRSLLLDAASGQLRLEDGFHPDAVAWANLTNAIRETGWAYLDLSTNGRYNDSLQAYAAGVVEASVSEELIYMHWMNTVVNYCGPFEYEVGYCEKLKNFLEANLEWMQREMELNPDSPYWHQVRLTLLQLKGLEDSYEGRLTFPTGRFTIKPLGFLLLQISGDLEDLEPALNKTNTKPSLGSGS | binds | –
28 kDa N-terminal fragment of the lysosomal 66.3 kDa protein from mouse, shorter form (L47-S246) (domain or fragment, UniProt Q3TCN2 47-246, looked up, N-glycans at N115 and N236 seen in 3FGT, lysosomal 66.3 kDa protein, mouse; 28 kDa fragment truncated at the C-terminus by two residues; residues L47-S246 by mass spectrometry; ordered in 3FGT: D60-N239; residues after N239 are disordered in the structure; also called shorter version of the 28 kDa fragment; chain A of 3FGT; source: HT1080 human fibrosarcoma cells, overexpressed, purified (original protocol lacking a gel filtration)) LPTLGPGWQRQNPDPPVSRTRSLLLDAASGQLRLEDGFHPDAVAWANLTNAIRETGWAYLDLSTNGRYNDSLQAYAAGVVEASVSEELIYMHWMNTVVNYCGPFEYEVGYCEKLKNFLEANLEWMQREMELNPDSPYWHQVRLTLLQLKGLEDSYEGRLTFPTGRFTIKPLGFLLLQISGDLEDLEPALNKTNTKPSLGS | binds | –
lysosomal 66.3 kDa protein from mouse (natural protein, UniProt Q3TCN2 47-594, looked up, N-glycans at N93, N115, N236, N441 and N520; mannose 6-phosphate containing, lysosomal 66.3 kDa protein, mouse; proprotein after removal of the signal peptide, L47-D594; ordered in 3FGW: P61-N239 and G245-D594; The preparation on the gel filtration column was a mixture of the uncleaved chain and the cleaved form (28 kDa plus 40 kDa fragments); the dimer is told of the 66.3 kDa protein as a whole; also called uncleaved 66.3 kDa protein; uncleaved form (3FGW)) LPTLGPGWQRQNPDPPVSRTRSLLLDAASGQLRLEDGFHPDAVAWANLTNAIRETGWAYLDLSTNGRYNDSLQAYAAGVVEASVSEELIYMHWMNTVVNYCGPFEYEVGYCEKLKNFLEANLEWMQREMELNPDSPYWHQVRLTLLQLKGLEDSYEGRLTFPTGRFTIKPLGFLLLQISGDLEDLEPALNKTNTKPSLGSGSCSALIKLLPGGHDLLVAHNTWNSYQNMLRIIKKYRLQFREGPQEEYPLVAGNNLVFSSYPGTIFSGDDFYILGSGLVTLETTIGNKNPALWKYVQPQGCVLEWIRNVVANRLALDGATWADVFKRFNSGTYNNQWMIVDYKAFLPNGPSPGSRVLTILEQIPGMVVVADKTAELYKTTYWASYNIPYFETVFNASGLQALVAQYGDWFSYTKNPRAKIFQRDQSLVEDMDAMVRLMRYNDFLHDPLSLCEACNPKPNAENAISARSDLNPANGSYPFQALHQRAHGGIDVKVTSFTLAKYMSMLAASGPTWDQCPPFQWSKSPFHSMLHMGQPDLWMFSPIRVPWD | – | 2
